T1: recombinant mouse P-selectin/Fc chimera (R&D Systems) (mouse; human, UniProt Q01102 42-709)
T1 construct: range 42-709; The CD33 signal peptide (Met1-Ala16) of the construct is left out; also called mouse P-Selectin fused to the Fc region of human IgG1; P-selectin-Fc fusion protein; not shown: Human IgG1 constant region, Pro100-Lys330
T1 sequence: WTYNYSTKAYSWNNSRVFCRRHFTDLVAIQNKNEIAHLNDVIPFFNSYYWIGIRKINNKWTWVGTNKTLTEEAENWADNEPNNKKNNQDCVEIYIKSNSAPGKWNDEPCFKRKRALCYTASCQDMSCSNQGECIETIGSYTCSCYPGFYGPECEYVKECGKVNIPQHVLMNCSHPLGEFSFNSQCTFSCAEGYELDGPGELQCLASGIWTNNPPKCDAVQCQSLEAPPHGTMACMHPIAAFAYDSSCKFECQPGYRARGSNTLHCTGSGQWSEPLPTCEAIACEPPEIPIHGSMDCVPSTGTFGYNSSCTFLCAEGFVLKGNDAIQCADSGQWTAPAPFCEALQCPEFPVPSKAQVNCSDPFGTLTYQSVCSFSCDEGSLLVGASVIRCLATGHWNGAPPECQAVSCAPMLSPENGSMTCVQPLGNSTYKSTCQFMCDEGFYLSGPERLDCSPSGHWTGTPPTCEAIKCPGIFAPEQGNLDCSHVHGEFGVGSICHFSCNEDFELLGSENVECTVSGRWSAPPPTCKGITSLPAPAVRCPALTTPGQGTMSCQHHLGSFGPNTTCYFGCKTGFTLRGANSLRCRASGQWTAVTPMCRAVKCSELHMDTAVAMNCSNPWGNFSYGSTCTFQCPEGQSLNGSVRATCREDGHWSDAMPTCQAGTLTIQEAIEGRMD


Assays:
[1] = biological target: human P-selectin glycoprotein ligand-1 (PSGL-1) (human) (UniProt Q14242); test: cell-based or functional assay
[2] = biological target: T1, recombinant mouse P-selectin/Fc chimera …; test: flow cytometry on Con A-activated mouse T cells, FITC-anti human IgG Fc detection
Description: To determine ability of selectins (P-Selectin, E-Selectin, and L-Selectin) to bind to activated T cells, freshly prepared splenocytes from C57BL/6 mice were activated and harvested at days 2, 4, and 6. Non-activated T cells (i.e., freshly prepared splenocytes at day 0) were also analyzed. The day 2 sample constituted 3×10⁶ cells/ml of splenocytes that were activated with 2 ug/ml of Concanavalin A (Con A) in DMEM+10% FBS for 2 days. Live cells were isolated by Ficoll gradient separation. The day 4 sample was obtained from cells that were activated with Con A for 3 days and maintained in medium containing 5 ng/ml of IL-2 for an additional day. The day 6 sample was derived from cells that were activated with Con A for 3 days and maintained in 5 ng/ml of IL-2 for 3 days.
To assay the samples by FACS analysis, 2×10⁵ cells per well from days 0, 2, 4 and 6 were incubated at 4° C. for 30 minutes with 40 ul/well of mouse P-Selectin, E-Selectin, or L-Selectin fused to the Fc region of human IgG1 (R&D Systems, Minneapolis, Minn.) at concentrations ranging from 20 ug/ml with two-fold serial dilution to 0.156 ug/ml. Following the incubation, cells were washed with 1× FACScan buffer (1×PBS without calcium and magnesium ions from Biochrom AG, Berlin and 2% FBS). […]

Sequence of human P-selectin glycoprotein ligand-1 (PSGL-1) (human) (Q14242 42-412): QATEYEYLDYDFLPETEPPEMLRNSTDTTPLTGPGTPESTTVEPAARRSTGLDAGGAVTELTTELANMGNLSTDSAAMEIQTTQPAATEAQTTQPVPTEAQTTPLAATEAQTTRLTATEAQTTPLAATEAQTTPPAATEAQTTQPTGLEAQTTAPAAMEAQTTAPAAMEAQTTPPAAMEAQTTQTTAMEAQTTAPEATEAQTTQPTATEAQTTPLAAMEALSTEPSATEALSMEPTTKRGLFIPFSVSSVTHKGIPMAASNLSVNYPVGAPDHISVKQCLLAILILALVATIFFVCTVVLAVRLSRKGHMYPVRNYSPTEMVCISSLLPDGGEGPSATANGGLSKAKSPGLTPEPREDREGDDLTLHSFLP

Row | percentage of apoptotic cells (Annexin V / PI, FACS) in PHA-activated human PBMC, day 3, with rabbit anti-mouse Ig cross-linker [1] [%] | percentage of apoptotic cells (Annexin V / PI, FACS) in PHA-activated human PBMC, day 8, with rabbit anti-mouse Ig cross-linker [1] [%] | binding result [2] | Molecule
1 | 8.5 | 24 |  | anti-PSGL-1 antibody clone KPL-1 (BD PharMingen)
2 |  |  | binds | mouse P-selectin glycoprotein ligand-1 (PSGL-1), first designated T cell apoptosis inducing protein (TAIP) (receptor, UniProt Q62170 42-397, looked up, whole, on cells; Endogenous protein on mouse T cells; For immunoprecipitation and western blot it was solubilised from RL1 T cell lysates; also called TAIP antigen; CD162) QVVGDDDFEDPDYTYNTDPPELLKNVTNTVAAHPELPTTVVMLERDSTSAGTSERATEKIATTDPTAPGTGGTAVGMLSTDSATQWSLTSVETVQPASTEVETSQPAPMEAETSQPAPMEAETSQPAPMEAETSQPAPMEADTSQPAPMEAETSQPAPNEAETSKPAPTEAETSKPAPTEAETTQLPRIQAVKTLFTTSAATEVPSTEPTTMETASTESNESTIFLGPSVTHLPDSGLKKGLIVTPGNSPAPTLPGSSDLIPVKQCLLIILILASLATIFLVCTVVLAVRLSRKTHMYPVRNYSPTEMICISSLLPEGGDGAPVTANGGLPKVQDLKTEPSGDRDGDDLTLHSFLP
